We go through one substance from US20260069707A1, “COMBINATION THERAPY WITH ANTIBODY-DRUG CONJUGATES AND HYALURONIDASES” (HALOZYME, INC., priority 2024, published 2026).

For series [1] the following is noted: pig, in vivo, sc. As to the method:
Porcine serum was used as surrogate matrix to prepare calibration standards and quality controls for skin sample quantitation. Untreated blank porcine skin was provided for preparation of monitoring quality controls. The porcine skin was homogenized at an approximate ratio of 0.5 mL of buffer for every 100 mg of skin.
Porcine serum was used as surrogate matrix to prepare calibration standards and quality controls for the quantitation of skin samples. Supported liquid-liquid extraction was used for sample clean up. […] The porcine skin was homogenized at an approximate ratio of 0.5 mL of buffer for every 100 mg of skin.
Therefore, nominal time points were used for PK analyses. To estimate the serum concentration at time zero for intravenous (IV) data, a second-order polynomial regression was applied to the early serum time points (0.25, 1, and 2 hours). The intercept of the fitted polynomial curve was used as the extrapolated concentration at time zero. Skin concentration data (μg/mL) was normalized to total protein (mg/mL) per sample, resulting in values represented as μg/mg protein.
Pharmacokinetic parameters were calculated using noncompartmental methods performed in Microsoft Excel. The area under the concentration-time curve (AUC) was determined using the linear trapezoidal rule. For serum data, AUC0-7 was calculated using all available time points. For skin data, AUC1-7 was computed based on the three available time point measurements. The maximum observed concentration (Cmax) was identified directly from the dataset, and the time at which it occurred (Tmax) was recorded. All calculations were performed using Microsoft Excel.
This sample was divided vertically into two identical pieces. One skin sample was placed into a pre-weighed cryogenic tube and its weight was recorded then stored on dry ice prior to transfer to ≤−70° C. The other skin sample was processed for potential future histological assessment into OCT freezing media and frozen on dry ice.
Animals received two SC doses on their lower abdominal region.
Two cohorts were included in the follow-on study. […] Each animal had two full thickness skin biopsies taken post-mortem using a 12 mm punch. This sample was divided vertically into two identical pieces. One skin sample was placed into a pre-weighed cryogenic tube and its weight was recorded, then stored on dry ice prior to transfer to ≤−70° C. The other skin sample was processed into OCT molds for potential future histological assessment.
Tissue lysates were prepared based upon the weight of the sample at a ratio of 0.2 g/mL homogenization buffer (Tables 64 and 65). The total protein concentration of each homogenate was determined by BCA assay. The concentration of the total ADC (TADC), total antibody (TAB) and free payload (SN38) in each sample was then normalized to the protein concentration and reported in μg analyte per mg total protein.
In this initial study, six animals were used. […] Two cohorts were included in this study. Cohort 1 was euthanized 24 hours after treatment, while Cohort 2 was euthanized 48 hours after exposure to the two test solutions.

The nature of series [2]: Linker stability during skin tissue sample preparation (Trodelvy spiked into skin tissue). The note with it: 100 μg/mL Trodelvy spiked into skin tissue, protein precipitation, LC-MS/MS. As for the experimental part:
Linker stability during skin tissue sample preparation was assessed by spiking 100 μg/mL Trodelvy into skin tissue, followed by protein precipitation and subsequent sample preparation for LC-MS/MS analysis. Free SN-38 was detected at approximately 10% of the total, which may be attributable to residual impurities in Trodelvy and/or linker hydrolysis occurring during the skin tissue processing steps. FIG. 62 provides the ratio of total ADC to total antibody (TADC/TAB) in skin tissue over time. Table 69 depicts the ratio of total ADC to total antibody in skin tissue homogenates, providing an indication of the extent of intact ADC that is remaining in the SC space over time.

Bounds are passed on as bounds.

As for Sacituzumab govitecan [Trodelvy], in series [1], the “AUC(1-7) of free payload in tissue homogenates of injection site, Mean” value stood at 0.17 µg·days/mL; the “AUC(1-7) of total ADC (TADC) in tissue homogenates of injection site, Mean” value came out at 18.55 µg·days/mL; the “AUC(1-7) of total antibody (TAB) in tissue homogenates of injection site, Mean” value came to 45.30 µg·days/mL; the “Cmax of free payload in tissue homogenates of injection site, Mean” value came out at 0.18 µg/mL. Moreover, in series [1], the “Cmax of total ADC (TADC) in tissue homogenates of injection site, Mean” value came out at 22.86 µg/mL; the “Cmax of total antibody (TAB) in tissue homogenates of injection site, Mean” value was 29.41 µg/mL; the “TADC/Free Payload, mean AUC(1-7)” value is reported as 10704%; the “TADC/Free Payload, mean Cmax” value is 12800%. In series [1], the “TADC/TAB, mean AUC(1-7)” value turned out to be 41%; the “TADC/TAB, mean Cmax” value worked out at 78%; the “Total ADC Result” value is less than 0.100 µg/mL. Further, the “Free SN-38 detected, % of the total” value in series [2] was “approximately 10%”.
